One test deals with T1, SARS-CoV-2 NTD (Table A) (SARS-CoV-2, UniProt P0DTC2 14-305).
T1 construct: domain: NTD
Briefly: ELISA, purified IgG. For orientation: In an ELISA, binding on a coated surface is turned into a signal by an enzyme label.

The target in test [1] is T2, SARS-CoV-2 spike (S) glycoprotein on virus (neutralization assays) (SARS-CoV-2, UniProt P0DTC2 14-1273). The test can be described thus: cell-based or functional assay.
In test [2] the target is T2, SARS-CoV-2 spike (S) glycoprotein on …. Briefly: cell-based or functional assay. The source holds these as a separate data set.
The target in a further test is T3, SARS-CoV-2 RBD (Table A) (SARS-CoV-2, UniProt P0DTC2 319-541).
T3 construct: domain: RBD
The test can be described thus: ELISA, purified IgG.

For test [3], the target named is SARS-CoV Spike trimer (Table A) (SARS-CoV, UniProt P59594 14-1190). Briefly: ELISA, purified IgG.
Test [4] addresses T4, SARS-CoV-2 S receptor-binding domain (SRBD), residues 319-541 (SARS-CoV-2, UniProt P0DTC2 319-541).
T4 construct: range 319-541
Briefly: ELISA on coated antigen.

Here are results for nine molecules from patent US20210300999A1 (VANDERBILT UNIVERSITY, published 2021).

B1: COV2-2952 (antibody, V domains shown)
VH: EVQLVESGGGLVQPGGSLRLSCAASGLTVRSNYMTWVRQTPGKGLEWVSVIYSGGSTFYADSVKGRFTISRDNSKNTVYLQMNSLRAEDTAVYYCARDLVTYGLDVWGQGTTVTVSS
VL: DIQLTQSPSFLSASVGDRVTITCRASQGISNYLAWYQQKPGTAPNLLIYAASTLQSGVPSRFSGSGSGTEFTLTISSLQPEDFATYYCQLLNSHPLTFGQGTRLEIK
Turning to B1, the “ELISA OD 450 nm” value with SARS-CoV-2 NTD (Table A) was 0.1 OD 450 nm. Further, the “SARS-CoV-2 focus reduction test, IC50” value in test [1] was determined as 0.089 µg/mL.

B2: COV2-2165 (antibody, V domains shown)
VH: EVQLVESGGGLVQPGGSLRLSCAASGLTVRSNYMTWVRQTPGKGLEWVSVIYSGGSTFYADSVKGRFTISRDNSKNTVYLQMNSLRAEDTAVYYCARDLVTYGLDVWGQGTTVTVSS
VL: DIQLTQSPSFLSASVGDRVTITCRASQGISNYLAWYQQKPGTAPNLLIYAASTLQSGVPSRFSGSGSGTEFTLTISSLQPEDFATYYCQLLNSHPLTFGQGTRLEIK
In the case of B2, in the test with SARS-CoV-2 NTD (Table A), the “ELISA OD 450 nm” value amounted to 0.05 OD 450 nm. Also, in test [1], the “Nano-luciferase virus reduction test, SARS-CoV-2, IC50” value (from here on “Nano-luciferase virus reduction test”) is less than 0.4 µg/mL and the “SARS-CoV-2 focus reduction test, IC50” value is 0.185 µg/mL. For the same molecule, in test [2], the “Neutralization IC50, ng/mL (FRNT, authentic SARS-CoV-2)” value (from here on “Neutralization IC50, ng/mL”) came out at 332 ng/mL.

B3: COV2-2094 (antibody, V domains shown)
VH: EVQLVESGGGVVRPGGSLRLSCAASGFIFDDYDMTWVRQAPGKGLEWVSGINWNGGSTGYADSVKGRFTISRDNAKNSLYLQMNSLRAEDTALYHCAVIMSPIPRYSGYDWAGDAFDIWGQGTMVTVSS
VL: SSELTQDPAVSVALGQTVRITCQGDSLRSYYASWYQQKPGQVPILVIYDKNNRPSGIPDRFSGSSSGNTASLTITGAQAEDEADYYCNSRDSSGNAVVFGGGTKLTVL
Regarding B3, the “ELISA OD 450 nm” value stood at 4.3 OD 450 nm with SARS-CoV-2 RBD (Table A), 0.1 OD 450 nm with SARS-CoV-2 NTD (Table A) and 4.1 OD 450 nm in test [3]. The “Nano-luciferase virus reduction test” value in test [1] was less than 0.05 µg/mL. Moreover, the “SARS-CoV-2 focus reduction test, IC50” value in test [1] was determined as 0.151 µg/mL. In test [2], the “Neutralization IC50, ng/mL” value came to 154 ng/mL. This molecule also came in with an EC50 in test [4] of 0.0014 µg/mL.

B4: COV2-2514 (antibody, V domains shown)
VH: EVQLVESGGGVVRPGGSLRLSCAASGFIFDDYDMTWVRQAPGKGLEWVSGINWNGGSTGYADSVKGRFTISRDNAKNSLYLQMNSLRAEDTALYHCAVIMSPIPRYSGYDWAGDAFDIWGQGTMVTVSS
VL: SSELTQDPAVSVALGQTVRITCQGDSLRSYYASWYQQKPGQVPILVIYDKNNRPSGIPDRFSGSSSGNTASLTITGAQAEDEADYYCNSRDSSGNAVVFGGGTKLTVL
As for B4, the “ELISA OD 450 nm” value with SARS-CoV-2 RBD (Table A) amounted to 3.56 OD 450 nm; with SARS-CoV-2 NTD (Table A), 0.09 OD 450 nm; in test [3] it was 3.6 OD 450 nm. In addition, the “SARS-CoV-2 focus reduction test, IC50” value in test [1] is 0.084 µg/mL.

B5: COV2-2838 (antibody, V domains shown)
VH: QMQLVQSGPEVKKPGTSVKVSCKASGFTFMSSAVQWVRQARGQRLEWIGWIVIGSGNTNYAQKFQERVTITRDMSTSTAYMELSSLRSEDTAVYYCAAPYCSSISCNDGFDIWGQGTMVTVSS
VL: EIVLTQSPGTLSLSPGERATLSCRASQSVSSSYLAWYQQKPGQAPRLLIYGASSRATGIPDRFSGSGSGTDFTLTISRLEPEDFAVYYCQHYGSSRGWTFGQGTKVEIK
In the case of B5, the “ELISA OD 450 nm” value in the test with SARS-CoV-2 NTD (Table A) stood at 0.12 OD 450 nm. For the same molecule, in test [1], the “SARS-CoV-2 focus reduction test, IC50” value worked out at 0.014 µg/mL.

B6: COV2-2196 (antibody, V domains shown)
VH: QMQLVQSGPEVKKPGTSVKVSCKASGFTFMSSAVQWVRQARGQRLEWIGWIVIGSGNTNYAQKFQERVTITRDMSTSTAYMELSSLRSEDTAVYYCAAPYCSSISCNDGFDIWGQGTMVTVSS
VL: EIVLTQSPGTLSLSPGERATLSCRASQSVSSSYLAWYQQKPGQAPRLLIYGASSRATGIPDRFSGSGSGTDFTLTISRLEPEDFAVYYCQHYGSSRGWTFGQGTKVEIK
notes: also called mAb COV2-2196
B6: the “ELISA OD 450 nm” value with SARS-CoV-2 NTD (Table A) was 0.05 OD 450 nm. In addition, in test [1], the “Nano-luciferase virus reduction test” value was less than 0.1 µg/mL and the “SARS-CoV-2 focus reduction test, IC50” value was found to be 0.029 µg/mL. In test [2], the “Neutralization IC50, ng/mL” value amounted to 15 ng/mL.

B7: COV2-3025 (antibody, V domains shown)
VH: EVQLVQSGPEVKKPGTSVKVSCKASGFTFMSSAVQWVRQARGQRLEWIGWIVIGSGNTNYAQKFQERVTITRDMSTSTAYMELSSLRSEDTAVYYCAAPYCSSISCNDGFDIWGQGTMVTVSS
VL: EIVLTQSPGTLSLSPGERVTLSCRASQSVSSSYLAWYQQKPGQAPRLLIYGASSRATGIPDRFSGSGSGTDFTLTISRLEPEDFAVYYCQHYGSSRGWTFGQGTKVEIK
As to B7, the entries for the “ELISA OD 450 nm” value (with SARS-CoV-2 RBD (Table A); in test [3]) were 3.7 OD 450 nm and 0.21 OD 450 nm, respectively. Moreover, the “SARS-CoV-2 focus reduction test, IC50” value in test [1] was determined as 0.031 µg/mL. In addition, the “Neutralization IC50, ng/mL” value in test [2] amounted to 37 ng/mL. In test [4], this molecule returned an EC50 of 0.0011 µg/mL.

B8: COV2-2096 (antibody, V domains shown)
VH: QVQLVQSGAEVKKPGASVKVSCKASGYTFGSFDINWVRQATGQGLEWMGRMNSNSGNTAYAQKFQGRVTMTRDTSTNTAYMELSSLRSEDTAMYYCARMRSGWPTHGRPDDFWGRGTLVTVSS
VL: QSVLTQAPSASGTPGQRVTISCSGSNSNIGSYTINWYQQLPGTAPKLLIYGNDQRTSGVPDRFSGSKFGTSASLAISGLQSEDENNYYCAVWDDSLNGLVFGGGTKLTVL
B8: in the test with SARS-CoV-2 NTD (Table A), the “ELISA OD 450 nm” value came to 0.12 OD 450 nm. In test [1], the “Nano-luciferase virus reduction test” value is less than 0.2 µg/mL and the “SARS-CoV-2 focus reduction test, IC50” value turned out to be 0.29 µg/mL. Moreover, the “Neutralization IC50, ng/mL” value in test [2] worked out at 59 ng/mL.

B9: COV2-2391 (antibody, V domains shown)
VH: QVQLVQSGAEVKKPGASVKVSCKASGYTFGSFDINWVRQATGQGLEWMGRMNSNSGNTAYAQKFQGRVTMTRDTSTNTAYMELSSLRSEDTAMYYCARMRSGWPTHGRPDDFWGRGTLVTVSS
VL: QSVLTQAPSASGTPGQRVTISCSGSNSNIGSYTINWYQQLPGTAPKLLIYGNDQRTSGVPDRFSGSKFGTSASLAISGLQSEDENNYYCAVWDDSLNGLVFGGGTKLTVL
Regarding B9, in the test with SARS-CoV-2 NTD (Table A), the “ELISA OD 450 nm” value stood at 0.1 OD 450 nm. In test [1], the “SARS-CoV-2 focus reduction test, IC50” value worked out at 0.045 µg/mL.

A word on the EC50: it is the concentration at which the effect is half-maximal. A lower EC50 goes with higher potency in that assay.
